Patent publication US20110262929A1 (FORERUNNER PHARMA RESEARCH, published 2011)

T1: GST_HS6ST2_C2 (human, UniProt Q96MM7 525-605)
T1 construct: Expressed in E. coli BL21 (DE3); whole cell lysate blotted after SDS-PAGE; also called GST fusion of amino acids 379-459 of HS6ST2_N-short; not shown: N-terminal glutathione S-transferase (GST) of vector pGEX-6P-1, with the vector's linker
T1 sequence: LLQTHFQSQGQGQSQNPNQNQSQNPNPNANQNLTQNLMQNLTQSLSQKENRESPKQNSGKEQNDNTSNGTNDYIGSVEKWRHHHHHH

T2: C-terminal V5 tagged HS6ST2_N-short (HS6ST2_N-short_ctV5), expressed in CHO DG44 cells (human, UniProt Q96MM7 147-605)
T2 construct: also called Q96MM7-2
T2 sequence: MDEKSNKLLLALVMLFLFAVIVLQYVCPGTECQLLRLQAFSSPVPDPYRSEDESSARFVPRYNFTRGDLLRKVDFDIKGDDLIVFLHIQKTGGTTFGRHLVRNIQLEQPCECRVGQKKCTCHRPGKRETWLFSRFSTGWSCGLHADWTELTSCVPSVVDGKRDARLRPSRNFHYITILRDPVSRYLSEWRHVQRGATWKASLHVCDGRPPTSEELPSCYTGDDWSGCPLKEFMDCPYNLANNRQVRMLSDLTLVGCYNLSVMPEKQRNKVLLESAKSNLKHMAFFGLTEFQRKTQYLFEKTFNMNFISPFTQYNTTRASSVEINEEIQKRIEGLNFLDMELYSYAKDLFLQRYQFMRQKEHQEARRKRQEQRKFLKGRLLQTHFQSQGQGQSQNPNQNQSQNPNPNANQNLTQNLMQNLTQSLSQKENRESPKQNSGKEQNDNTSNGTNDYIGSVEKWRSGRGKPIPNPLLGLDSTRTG

T3: C-terminal V5 tagged HS6ST2_N-long (HS6ST2_N-long_ctV5), expressed in CHO DG44 cells (human, UniProt Q96MM7 1-605)
T3 construct: On cells in flow cytometry; also called Q96MM7-1
T3 sequence: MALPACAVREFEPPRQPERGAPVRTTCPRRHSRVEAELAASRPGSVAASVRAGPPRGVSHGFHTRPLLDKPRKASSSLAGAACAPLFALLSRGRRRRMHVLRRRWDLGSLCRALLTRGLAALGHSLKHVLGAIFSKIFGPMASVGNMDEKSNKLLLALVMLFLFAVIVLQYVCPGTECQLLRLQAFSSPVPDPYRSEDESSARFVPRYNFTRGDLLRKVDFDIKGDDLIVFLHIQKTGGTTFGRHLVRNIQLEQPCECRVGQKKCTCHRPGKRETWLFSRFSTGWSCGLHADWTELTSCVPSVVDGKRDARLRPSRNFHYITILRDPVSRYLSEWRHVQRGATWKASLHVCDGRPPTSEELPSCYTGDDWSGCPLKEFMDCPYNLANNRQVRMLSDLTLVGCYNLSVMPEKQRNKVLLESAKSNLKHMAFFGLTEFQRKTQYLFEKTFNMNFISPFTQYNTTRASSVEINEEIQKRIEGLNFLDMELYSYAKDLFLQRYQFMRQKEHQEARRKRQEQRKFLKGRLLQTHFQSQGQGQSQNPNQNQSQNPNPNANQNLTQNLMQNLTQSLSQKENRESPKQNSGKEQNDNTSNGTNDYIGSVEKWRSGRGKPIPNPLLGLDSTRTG

T4: C-terminal V5 tagged mouse HS6ST2 (mHS6ST2_ctV5), expressed in CHO DG44 cells (mouse, UniProt Q80UW0 148-612)
T4 construct: also called mHS6ST2_ctV5_CHO; mouse HS6ST2 transcript variant 2
T4 sequence: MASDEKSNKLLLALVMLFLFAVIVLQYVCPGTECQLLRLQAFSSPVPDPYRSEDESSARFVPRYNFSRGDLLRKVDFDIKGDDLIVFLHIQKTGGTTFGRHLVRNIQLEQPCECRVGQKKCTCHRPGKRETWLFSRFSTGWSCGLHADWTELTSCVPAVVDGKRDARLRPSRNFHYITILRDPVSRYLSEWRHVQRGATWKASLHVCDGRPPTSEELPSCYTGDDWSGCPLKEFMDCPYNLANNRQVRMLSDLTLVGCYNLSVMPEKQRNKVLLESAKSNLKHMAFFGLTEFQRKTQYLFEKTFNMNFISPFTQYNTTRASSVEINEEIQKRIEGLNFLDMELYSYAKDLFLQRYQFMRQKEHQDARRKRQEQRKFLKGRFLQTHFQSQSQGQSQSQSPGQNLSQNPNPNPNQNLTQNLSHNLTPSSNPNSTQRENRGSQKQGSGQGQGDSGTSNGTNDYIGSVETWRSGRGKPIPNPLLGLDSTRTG

T5: GST_HS6ST2_N (human, UniProt Q96MM7 170-321)
T5 construct: Expressed in E. coli BL21 (DE3); whole cell lysate blotted after SDS-PAGE; also called GST fusion of amino acids 24-175 of HS6ST2_N-short; not shown: N-terminal glutathione S-transferase (GST) of vector pGEX-6P-1, with the vector's linker
T5 sequence: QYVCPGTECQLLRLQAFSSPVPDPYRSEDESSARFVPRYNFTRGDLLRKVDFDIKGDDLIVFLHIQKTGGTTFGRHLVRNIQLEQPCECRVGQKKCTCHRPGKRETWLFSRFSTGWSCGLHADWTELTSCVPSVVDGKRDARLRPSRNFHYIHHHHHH


Assays:
GST_HS6ST2_C2 = target: T1, GST_HS6ST2_C2; experiment: Western blot of E. coli whole cell lysate, antibody 10 µg/mL
Procedure: (§1) GST_HS6ST2_N, GST_HS6ST2_mid, GST_HS6ST2_C, GST_HS6ST2_C1 and GST_HS6ST2_C2 were expressed in BL21 (DE3) Competent Cells (Takara Bio), and the whole cell lysates were resolved by SDS-PAGE electrophoresis and then transferred to PVDF membranes (Immobilon-P, Millipore) and Western blotted with the anti-HS6ST2 antibodies. The anti-HS6ST2 antibodies were used at 10 μg/mL, while the secondary antibody (HRP-anti mIgG, GE Healthcare) was used as a 3000-fold dilution, and blots were detected with ECL Western Blotting Detection Reagents (GE Healthcare). As a result, the anti-HS6ST2 antibodies A1, A10, B5, B6 and C8 bound to GST_HS6ST2_C2, A6 bound to GST_HS6ST2_C1, and C10 bound to GST_HS6ST2_N.

[1] = target: T2, C-terminal V5 tagged HS6ST2_N-short …; experiment: flow cytometry on HS6ST2_N-short_ctV5_CHO cells, antibody 2 µg/mL
Procedure: (§2) Binding of the anti-HS6ST2 antibodies prepared in Example 2 to mHS6ST2 was evaluated by flow cytometry. The cells used were mHS6ST2_ctV5_CHO, HS6ST2_N-short_ctV5_CHO as a positive control, and the CHO DG44 cell line as a negative control.
(§3) Each anti-HS6ST2 antibody or mouse IgG1 (mIgG1, BD Biosciences Pharmingen) as a negative control was added to a final concentration of 2 μg/mL into 96-well U-bottom plates (Becton Dickinson) containing 5×10⁴ cells suspended in PBS (FACS buffer) supplemented with 0.5% bovine serum albumin and 0.1% NaN₃. After reaction on ice for 1 hour, the cells were washed with FACS buffer. Then, an FITC-labeled anti-mouse antibody (Goat F(ab′)₂ Fragment Anti-mouse IgG (H+L)-FITC, Beckman Coulter) was added as a secondary antibody, and the mixture was reacted on ice for 1 hour. The cells were washed with FACS buffer, and then suspended in FACS buffer containing 10 μg/mL propidium iodide (PI) (Sigma) and assayed by a flow cytometer (FACS Calibur, Becton Dickinson). The assay data were analyzed by CELLQuest software (Becton Dickinson), and the geo-mean of FITC fluorescent intensity was calculated for the PI-negative population of viable cells.

[2] = target: T3, C-terminal V5 tagged HS6ST2_N-long …; experiment: flow cytometry on HS6ST2_N-long_ctV5_CHO cells
Procedure: as §3
Binding activity of the anti-HS6ST2 antibodies prepared in Example 2 to HS6ST2_N-long was evaluated by flow cytometry. The cells used were HS6ST2_N-long_ctV5_CHO cells and HS6ST2_N-short_{—} ctV5_CHO cells as a positive control, and evaluated in the same manner as in Example 3. The primary antibodies were used at a concentration of 10 μg/mL.

[3] = target: T4, C-terminal V5 tagged mouse HS6ST2 …; experiment: flow cytometry on mHS6ST2_ctV5_CHO cells
Procedure: as §2, §3

GST_HS6ST2_N = target: T5, GST_HS6ST2_N; experiment: Western blot of E. coli whole cell lysate, antibody 10 µg/mL
Procedure: as §1

[4] = target: T4, C-terminal V5 tagged mouse HS6ST2 …; experiment: flow cytometry on mHS6ST2_ctV5_CHO cells, antibody 2 µg/mL
Procedure: as §2, §3

Binder | binding result (GST_HS6ST2_C2) | binding result [1] | binding result [2] | binding result [3] | binding result (GST_HS6ST2_N) | binding result [4]
anti-HS6ST2 antibody A10 (antibody, mouse IgG1, V domains shown, also called clone A10) VH: EVQLQQSGAELVKPGASVKLSCTASGFNIKDTYMHWVKQRPEQGLEWIGRIDPANGNTKFDPKFQGKASITADTSSNTAYLQLSSLTSEDTAVYYCATNLLRAMDYWGQGTSVTVSS VL: DIVMSQSPSSLTVSVGEKVTMSCKSSQSLLYSSNQKNYLAWCQQIPGQSPKLLIYWASTRESGVPDRFAGSGSGTDFTLTISSVKAEDLAVYYCLQYFTYPFTFGSGTKLEIK | binds | binds | binds | no binding (tested: 2 µg/mL) |  | 
anti-HS6ST2 antibody C10 (antibody, mouse IgG1, V domains shown, also called clone C10) VH: QVQLHQPGSVLVRPGASVKLSCKASGYTFTDSWMHWAKQRPGQGLEWIGEIRPNSGKTNYNEKFKGKATLTVDTSSSTAYVDLRSLTSEDSAVYYCVRTYMSHFDYWGQGTTLTVSS VL: DIVMTQAAFSNPVTLGTSASISCRSSKSLLHSNGITYLYWYLQKPGQSPQLLIYQMSNLAPGVPDRVSSSGSGSDFTLRISRVEAEDVGVYYCAQNLELPFTFGSGTRLEIK |  | binds | binds |  | binds | binds

Results, then the binder that gave them:

binding result (GST_HS6ST2_C2) | binding result [1] | binding result [2] | binding result [3] | binding result (GST_HS6ST2_N) | binding result [4] | Binder
binds | binds | binds | no binding (tested: 2 µg/mL) |  |  | anti-HS6ST2 antibody B5 (antibody, mouse IgG1, V domains shown, also called clone B5; B5-biotin) VH: EVKLVESGGGLVKSGGSLKLSCVVSGFTFSRYAMSWVRQTPEKRLEWVASIVSGDKTYYPDSVKGRFTISRDNARNILYLQMSSLRSEDTAMYYCTRELGYFDVWGAGTTVTVSS VL: DVVMTQTPLSLPVSLGDQASISCRSSQSLVHSNGNTYLHWYLQKPGQSPKLLIYKVSNRFSGVPDRFSGSGSGTDFTLKISRVEAEDLGVYFCSQSIHVPPLTFGAGTKLELK
binds | binds | binds | no binding (tested: 2 µg/mL) |  |  | anti-HS6ST2 antibody B6 (antibody, mouse IgG1, V domains shown, also called clone B6) VH: EVQLQQSGAELVRSGASVKLSCTASGFNIKDYYMHWVKQRPEQGLEWIGWIDPDNGDTEYAPKFQGKATMTADTSSNTAYLQLSSLTSEDTAVYYCNAGNGNYWFAYWGQGTLVTVSA VL: DVVMTQTPLSLPVSLGDQASISCRSSQSLVHSNGNTYLHWNLQKPGQSPKLLIYKVSNRFSGVPDRFSGSGSGTDFTLKISRVEAEDLGVYFCSQTTLVPYTFGGGTKLEIK
